Each sequence was assayed against T1, His-EmrR (Chromobacterium violaceum ATCC 12472) (UniProt Q7P000) (assay: EMSA). Details: 32P-labelled PCR probes, 100-300 nM DTT-reduced His-EmrR, interaction buffer as in da Silva Neto 2012 and Previato-Mello 2017 (composition, pH …).
T1 sequence: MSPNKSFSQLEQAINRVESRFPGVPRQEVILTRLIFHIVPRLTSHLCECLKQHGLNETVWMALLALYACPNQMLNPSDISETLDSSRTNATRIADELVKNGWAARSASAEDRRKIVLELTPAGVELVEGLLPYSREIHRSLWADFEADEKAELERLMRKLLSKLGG
In the case of “TTGGATCCGAAGGCCAGGCGCTGCATCTGGGCGGCGCCCACCCGAGCGCGCTGGAAAAACTGCTGTTCCCGCGGCTGGAAACCAGCCAGCTGCTGGGCGGCGGCAGCCAGCCGCTGCGGCTGACGCTGAGCTGGCAACAGGGTTGGGCGCAGATCGGCCTGTTCGAATGGACGGTGTGGCTGCTGCTGTCGCTGCTGCTGGGCCTGGGCATAGGCCTGGCCGGCTTCAGCTTCGTGCGCAGCAGCGACAGCTGCAGTAAT (double strand) [CV_0208 coding region]”, the binding is reported as “binds more weakly”.
In the case of “TTGGCACTGCAGCAAATAAGCCTGCCCGTGGCGGCGCCTCCCCCGCCGCCACTCTCCCTCCTTCCCCCGTCTCGCCGGCCCTTCGGCTGCCGCCGTCTACCGGCCGCCAATCTAACCCATTGTCATTTCGCCACACTTTTCGCCAGCATTTCATTAGCAAGGTTATTATTACTTGCAAAATAATACCGCACGTTACTAAAATGGCCGCATGAGTCCAAACAAGAAGCTTATA (double strand) [emrR promoter]”, the binding is reported as “binds”.
In the case of “TTGGCAGAGCTCCAATGATGCATGTCGGTCCGGACGTGATTAATCTGGTGATAATCACCCGGGTTATTATTCGAGTGAAAAAGCGCGGGCTCAGCCAAGCTTATA (double strand) [emrCAB promoter]”, the binding is reported as “binds”.
